The record followed here is US20040053329A1 (published 2004).

For this assay, the target named is T1, endoglin (CD105) of human endothelial cells (HUVEC and other endothelial cells) (human, UniProt P17813 26-658).
T1 construct: whole, on cells; In the immunoprecipitation the protein came from a non-denaturing lysate of 35S-methionine-labelled HUVEC; In immunofluorescence and flow cytometry it was on cells; also called endoglin-expressing HUVEC; endoglin-expressing endothelial cells
T1 sequence (looked up): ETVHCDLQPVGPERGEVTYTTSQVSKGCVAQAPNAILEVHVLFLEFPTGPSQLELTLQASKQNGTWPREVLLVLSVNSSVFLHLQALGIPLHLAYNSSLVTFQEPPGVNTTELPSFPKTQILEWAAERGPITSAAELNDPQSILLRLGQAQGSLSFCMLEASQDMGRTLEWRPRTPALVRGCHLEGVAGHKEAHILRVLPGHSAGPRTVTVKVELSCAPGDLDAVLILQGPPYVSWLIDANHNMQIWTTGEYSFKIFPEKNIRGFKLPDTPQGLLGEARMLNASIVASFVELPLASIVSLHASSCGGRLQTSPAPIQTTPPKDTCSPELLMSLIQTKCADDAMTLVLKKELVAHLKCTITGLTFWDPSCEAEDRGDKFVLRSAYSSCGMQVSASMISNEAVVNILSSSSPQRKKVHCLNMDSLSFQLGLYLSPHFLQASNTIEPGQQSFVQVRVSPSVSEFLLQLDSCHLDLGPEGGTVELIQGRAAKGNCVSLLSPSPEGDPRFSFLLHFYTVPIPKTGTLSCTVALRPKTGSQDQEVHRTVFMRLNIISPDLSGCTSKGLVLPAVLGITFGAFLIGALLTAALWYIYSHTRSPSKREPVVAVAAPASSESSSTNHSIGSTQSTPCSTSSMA
In words: immunoprecipitation from non-denaturing lysate of 35S-methionine-labelled HUVEC.

Procedure: Endoglin from primary human umbilical cord endothelial cells (HUVEC) was detected by means of immunoprecipitation under non-denaturing conditions. For this purpose, the [³⁵S]-methionine-labelled endothelial cells were lysed with lysing buffer (10 mM Tris-HCl pH 7.5, 150 mM NaCl, 1% sodium deoxycholate, 1% Nonidet P40) for 30 min at 4° C. […] The complexes were washed several times with lysing buffer and finally resuspended in 20 μL SDS-PAGE charge buffer. After separation in the SDS-polyacrylamide gel, the gel was immobilised for 30 min in 30% methanol and 10% acetic acid and subsequently mixed with amplification solution (Amersham-Buchler). The gel was dried and exposed with an x-ray film.

B1: scFv C4 (anti-endoglin polypeptide C4 in the form of an scFv fragment) (scFv, not shown: small tags and cut ends)
scFv: AQVQLVQSGAEVKKPGATVKISCKVSGYTFTDYYMHWVQQAPGKGLEWMGLVDPEDGETIYAEKFQGRVTITADTSTDTAYMELSSLRSEDTAVYYCARRTTHGPDPHWGQGTLVTVSSGGGGSGGGGSGGSALDIQLTQSPSSLSASVGDRVTITCRASQSISSYLNWYQRKPGKAPKLLIYAASSLQSGVPSRFSGSGSGTDFTLTISSLQPEDFATYYCQQSYSTRTFGQGTKLEIKR
notes: also called polypeptide scFv C4; anti-endoglin-antibody
In the case of B1, the binding result is listed as “binds”.
